T1: peptide 23, Dap-substituted pyrene derivative at Y+3 (not fully specified)
T1 chain: EEEIYGEXEA

B1: Csk (protein)
chain: MSAIQAAWPSGTECIAKYNFHGTAEQDLPFCKGDVLTIVAVTKDPNWYKAKNKVGREGIIPANYVQKREGVKAGTKLSLMPWFHGKITREQAERLLYPPETGLFLVRESTNYPGDYTLCVSCDGKVEHYRIMYHASKLSIDEEVYFENLMQLVEHYTSDADGLCTRLIKPKVMEGTVAAQDEFYRSGWALNMKELKLLQTIGKGEFGDVMLGDYRGNKVAVKCIKNDATAQAFLAEASVMTQLRHSNLVQLLGVIVEEKGGLYIVTEYMAKGSLVDYLRSRGRSVLGGDCLLKFSLDVCEAMEYLEGNNFVHRDLAARNVLVSEDNVAKVSDFGLTKEASSTQDTGKLPVKWTAPEALREKKFSTKSDVWSFGILLWEIYSFGRVPYPRIPLKDVVPRVEKGYKMDAPDGCPPAVYEVMKNCWHLDAAMRPSFLQLREQLEHIKTHELHL
B2: ZAP-70 (protein)
chain: MPDPAAHLPFFYGSISRAEAEEHLKLAGMADGLFLLRQCLRSLGGYVLSLVHDVRFHHFPIERQLNGTYAIAGGKAHCGPAELCEFYSRDPDGLPCNLRKPCNRPSGLEPQPGVFDCLRDAMVRDYVRQTWKLEGEALEQAIISQAPQVEKLIATTAHERMPWYHSSLTREEAERKLYSGAQTDGKFLLRPRKEQGTYALSLIYGKTVYHYLISQDKAGKYCIPEGTKFDTLWQLVEYLKLKADGLIYCLKEACPNSSASNASGAAAPTLPAHPSTLTHPQRRIDTLNSDGYTPEPARITSPDKPRPMPMDTSVYESPYSDPEELKDKKLFLKRDNLLIADIELGCGNFGSVRQGVYRMRKKQIDVAIKVLKQGTEKADTEEMMREAQIMHQLDNPYIVRLIGVCQAEALMLVMEMAGGGPLHKFLVGKREEIPVSNVAELLHQVSMGMKYLEEKNFVHRDLAARNVLLVNRHYAKISDFGLSKALGADDSYYTARSAGKWPLKWYAPECINFRKFSSRSDVWSYGVTMWEALSYGQKPYKKMKGPEVMAFIEQGKRMECPPECPPELYALMSDCWIYKWEDRPDFLTVEQRMRACYYSLASKVEGPPGSTQKAEAACA
B3: c-Met (protein)
chain: KKRKQIKDLGSELVRYDARVHTPHLDRLVSARSVSPTTEMVSNESVDYRATFPEDQFPNSSQNGSCRQVQYPLTDMSPILTSGDSDISSPLLQNTVHIDLSALNPELVQAVQHVVIGPSSLIVHFNEVIGRGHFGCVYHGTLLDNDGKKIHCAVKSLNRITDIGEVSQFLTEGIIMKDFSHPNVLSLLGICLRSEGSPLVVLPYMKHGDLRNFIRNETHNPTVKDLIGFGLQVAKGMKYLASKKFVHRDLAARNCMLDEKFTVKVADFGLARDMYDKEYYSVHNKTGAKLPVKWMALESLQTQKFTTKSDVWSFGVLLWELMTRGAPPYPDVNTFDITVYLLQGRRLLQPEYCPDPLYEVMLKCWHPKAEMRPSFSELVSRISAIFSTFIGEHYVHVNATYVNVKCVAPYPSLLSSEDNADDEVDTRPASFWETS
B4: MLK1 (protein)
chain: PPIQLLEIDFAELTLEEIIGIGGFGKVYRAFWIGDEVAVKAARHDPDEDISQTIENVRQEAKLFAMLKHPNIIALRGVCLKEPNLCLVMEFARGGPLNRVLSGKRIPPDILVNWAVQIARGMNYLHDEAIVPIIHRDLKSSNILILQKVENGDLSNKILKITDFGLAREWHRTTKMSAAGTYAWMAPEVIRASMFSKGSDVWSYGVLLWELLTGEVPFRGIDGLAVAYGVAMNKLALPIPSTCPEPFAKLMEDCWNPDPHSRPSFTNILDQLTTIEESGFFE
B5: LynB (protein)
chain: MGCIKSKGKDSLSDDGVDLKTQPVPESQLLPGQRFQTKDPEEQGDIVVALYPYDGIHPDDLSFKKGEKMKVLEEHGEWWKAKSLLTKKEGFIPSNYVAKLNTLETEEWFFKDITRKDAERQLLAPGNSAGAFLIRESETLKGSFSLSVRDFDPVHGDVIKHYKIRSLDNGGYYISPRITFPCISDMIKHYQKQADGLCRRLEKACISPKPQKPWDKDAWEIPRESIKLVKRLGAGQFGEVWMGYYNNSTKVAVKTLKPGTMSVQAFLEEANLMKTLQHDKLVRLYAVVTREEPIYIITEYMAKGSLLDFLKSDEGGKVLLPKLIDFSAQIAEGMAYIERKNYIHRDLRAANVLVSESLMCKIADFGLARVIEDNEYTAREGAKFPIKWTAPEAINFGCFTIKSDVWSFGILLYEIVTYGKIPYPGRTNADVMTALSQGYRMPRVENCPDELYDIMKMCWKEKAEERPTFDYLQSVLDDFYTATEGQYQQQP
B6: Flt3 (protein)
chain: HKYKKQFRYESQLQMVQVTGSSDNEYFYVDFREYEYDLKWEFPRENLEFGKVLGSGAFGKVMNATAYGISKTGVSIQVAVKMLKEKADSSEREALMSELKMMTQLGSHENIVNLLGACTLSGPIYLIFEYCCYGDLLNYLRSKREKFHRTWTEIFKEHNFSFYPTFQSHPNSSMPGSREVQIHPDSDQISGLHGNSFHSEDEIEYENQKRLEEEEDLNVLTFEDLLCFAYQVAKGMEFLEFKSCVHRDLAARNVLVTHGKVVKICDFGLARDIMSDSNYVVRGNARLPVKWMAPESLFEGIYTIKSDVWSYGILLWEIFSLGVNPYPGIPVDANFYKLIQNGFKMDQPFYATEEIYIIMQSCWAFDSRKRPSFPNLTSFLGCQLADAEEAMYQNVDGRVSECPHTYQNRRPFSREMDLGLLSPQAQVEDS
B7: Fes/Fps (protein)
chain: MGFSSELCSPQGHGVLQQMQEAELRLLEGMRKWMAQRVKSDREYAGLLHHMSLQDSGGQSRAISPDSPISQSWAEITSQTEGLSRLLRQHAEDLNSGPLSKLSLLIRERQQLRKTYSEQWQQLQQELTKTHSQDIEKLKSQYRALARDSAQAKRKYQEASKDKDRDKAKDKYVRSLWKLFAHHNRYVLGVRAAQLHHQHHHQLLLPGLLRSLQDLHEEMACILKEILQEYLEISSLVQDEVVAIHREMAAAAARIQPEAEYQGFLRQYGSAPDVPPCVTFDESLLEEGEPLEPGELQLNELTVESVQHTLTSVTDELAVATEMVFRRQEMVTQLQQELRNEEENTHPRERVQLLGKRQVLQEALQGLQVALCSQAKLQAQQELLQTKLEHLGPGEPPPVLLLQDDRHSTSSSEQEREGGRTPTLEILKSHISGIFRPKFSLPPPLQLIPEVQKPLHEQLWYHGAIPRAEVAELLVHSGDFLVRESQGKQEYVLSVLWDGLPRHFIIQSLDNLYRLEGEGFPSIPLLIDHLLSTQQPLTKKSGVVLHRAVPKDKWVLNHEDLVLGEQIGRGNFGEVFSGRLRADNTLVAVKSCRETLPPDLKAKFLQEARILKQYSHPNIVRLIGVCTQKQPIYIVMELVQGGDFLTFLRTEGARLRVKTLLQMVGDAAAGMEYLESKCCIHRDLAARNCLVTEKNVLKISDFGMSREEADGVYAASGGLRQVPVKWTAPEALNYGRYSSESDVWSFGILLWETFSLGASPYPNLSNQQTREFVEKGGRLPCPELCPDAVFRLMEQCWAYEPGQRPSFSTIYQELQSIRKRHR

Target: T1, peptide 23, Dap-substituted pyrene …

Row | Protein | Km | Vmax | phosphorylation of the peptide (fluorescence)
1 | B1 | 120 µM | 0.4 µmol/min/mg | 
2 | B2 |  |  | unable to effectively catalyze the phosphorylation of either 23 or 25
3 | B3 |  |  | unable to effectively catalyze the phosphorylation of either 23 or 25
4 | B4 |  |  | unable to effectively catalyze the phosphorylation of either 23 or 25
5 | B5 | 130 µM | 4 µmol/min/mg | 
6 | B6 | 450 µM | 4.9 µmol/min/mg | 
7 | B7 | 60 µM | 3 µmol/min/mg | 
